# Laboratory results from patent US20100303790A1, “USE OF BILIVERDIN REDUCTASE (BVR) AND BVR PEPTIDE FRAGMENTS TO TREAT CORONARY DISORDERS” (UNIVERSITY OF ROCHESTER, priority 2009, published 2010).
# Entries after “also recorded” stand apart in the source; their conditions may differ. Where a SMILES comes first, the peptide text is derived from it. The star is where a group is joined. Cbz = O=C(OCc1ccccc1)*
# T1: hBVR-derived peptide KYCCSRK^296
# T1 chain: KYCCSRK
# T2: hBVR-derived peptide KKRILHC^281
# T2 chain: KKRILHC
# B1: rat biliverdin reductase (BVR), endogenous in perfused rat heart (protein)
# chain: AEPKRKFGVVVVGVGRAGSVRLRDLKDPRSAAFLNLIGFVSRRELGSLDEVRQISLEDALRSQEIDVAYICSESSSHEDYIRQFLQAGKHVLVEYPMTLSFAAAQELWELAAQKGRVLHEEHVELLMEEFEFLRREVLGKELLKGSLRFTASPLEEERFGFPAFSGISRLTWLVSLFGELSLISATLEERKEDQYMKMTVQLETQNKGLLSWIEEKGPGLKRNRYVNFQFTSGSLEEVPSVGVNKNIFLKDQDIFVQKLLDQVSAEDLAAEKKRIMHCLGLASDIQKLCHQKK
# B2: si-rBVR: retrovirus-expressed siRNA against rat BVR (SEQ ID NO:61, 62) (nucleic acid)
# chain 1: GATCCCCTCTGCAGCATTCCTGAACCTGTTCAAGAGACAGGTTCAGGAATGCTGCAGATTTTTGGAAA
# chain 2: AGCTTTTCCAAAAATCTGCAGCATTCCTGAACCTGTCTCTTGAACAGGTTCAGGAATGCTGCAGAGGG
# modifications: the letters are possibly those of the target site
# B3: si-rHO-2: retrovirus-expressed siRNA against rat HO-2 (SEQ ID NO:63, 64) (nucleic acid)
# chain 1: GATCCCCGAAAACCATACCAAAATGGCATTCAAGAGATGCCATTTTGGTATGGTTTTCTTTTTGGAAA
# chain 2: AGCTTTTCCAAAAAGAAAACCATACCAAAATGGCATCTCTTGAATGCCATTTTGGTATGGTTTTCGGG
# modifications: the letters are possibly those of the target site
# Columns and labels:
# [1] = test system: rat neonatal cardiomyocytes; experiment: BVR, HO-2 and HO-1 protein levels in rat neonatal cardiomyocytes (western blot); assay type: cell-based; settings: for HO-2 protein level: MG132 50 μg/ml; for effect on isoproterenol-induced BVR protein expression / effect on isoproterenol-induced HO-2 protein expression: 10 μM isoproterenol, western blot
# Method: Neonatal Rat Cardiomyocytes: Primary cultures of neonatal rat cardiomyocytes were prepared as described previously (Ding et al., “Functional Role of Phosphodiesterase 3 in Cardiomyocyte Apoptosis: Implication in Heart Failure,” Circulation 111:2469-2476 (2005) which is hereby incorporated by reference in its entirety). Briefly, fragmented ventricular tissue from 1-2 day old Sprague-Dawley rats was subjected to multiple rounds of enzymatic digestion with collagenase II (Worthington, Lakewood, N.J.). The cells were then collected by low speed centrifugation at 4° C. Non-myocytes were removed by two rounds of pre-plating the cells on culture dishes. The enriched cardiomyocytes were cultured in DMEM with 10% FBS and 10% horse serum. The day after cell adhesion, 10 μM cytosine 1-β-D-arabinofuranoside (Sigma, St. Louis, Mo.) was added to inhibit the growth of contaminating non-myocytes.
# Plasmids and Constructs: Adenovirus for expression of an endogenous PKA inhibitor (PKA251 bp) was prepared as described previously (Ding et al., “Functional Role of Phosphodiesterase 3 in Cardiomyocyte Apoptosis: Implication in Heart Failure,” Circulation 111:2469-2476 (2005), which is hereby incorporated by reference in its entirety). Rat BVR and HO-2 siRNA were designed based on the human sequences (Miralem et al., “Small Interference RNA-Mediated Gene Silencing of Human Biliverdin Reductase, but not that of Heme Oxygenase-1, Attenuates Arsenite-Mediated Induction of the Oxygenase and Increases Apoptosis in 293A Kidney Cells,” J Biol Chem 280:17084-17092 (2005), which is hereby incorporated by reference in its entirety). The BVR targeting site is at nucleotides 94-114, and the HO-2 targeting site is at nucleotides 73-93, downstream of the start codon in each case. Oligonucleotides containing the sequence of a 21 nucleotide small interference RNA were synthesized as follows: BVR siRNA, 5′-GATCCCC ([…]) TTCAAGAG ([…]) TTTTTGGAAA (SEQ ID NO:61) and 5′-AGCTTTTCCAAAAA ([…]) TCTCTTGAA ([…]) GGG (SEQ ID NO:62; HO-2 siRNA, 5′-GATCCCC ([…]) TTCAAGAGA ([…]) TTTTTGGAAA (SEQ ID NO:63) and 3′-AGCTTTTCCAAAAA ([…]) TCTCTTGAA ([…]) GGG (SEQ ID NO:64). Complementary oligonucleotides were annealed, then ligated into pSuper-Retro vector (OligoEngine Co. Seattle, Wash.). E. coli clones containing the desired constructs were identified by restriction analysis and verified by DNA sequencing. The retroviral DNA vectors for generating BVR si-rRNA and […] were transfected into the HEK293A packaging cell line, and the supernatant containing the expressed si-rBVR or si-rHO-2 retrovirus was then titrated in NIH3T3 cells. Retrovirus expressing siRNA was used to infect cells at a multiplicity of infection of 4 plaque-forming units/cell. The plasmid pcDNA-hBVR has previously been described (Lerner-Marmarosh et al., “Human Biliverdin Reductase: A Member of the Insulin Receptor Substrate Family with Serine/Threonine/Tyrosine Kinase Activity,” Proc Natl Acad Sci US A 102:7109-7114 (2005), which is hereby incorporated by reference in its entirety); pcDNA-hHO2 was constructed by cloning the HO-2 open reading frame into pcDNA3. […]
# [2] = target: T1, hBVR-derived peptide KYCCSRK^296
# [3] = target: T2, hBVR-derived peptide KKRILHC^281
# [4] = test system: rat neonatal cardiomyocytes; experiment: Apoptosis of cardiomyocytes (cleaved caspase-3, TUNEL, DNA electrophoresis); assay type: cell-based; settings: for DNA fragmentation by electrophoresis of genomic DNA: ISO treatment coupled with siRNA; for number of cardiac apoptotic cells (TUNEL): siRNA followed by isoproterenol, relative to absence of ISO stimulation; for level of cleaved caspase-3 protein: with 10 μM isoproterenol, 24 hours
# Method: Western Blot Analysis: Cell lysates were prepared by homogenization in RIPA buffer (40 mM Tris-HCl, pH 7.5, 1 mM EDTA, 1 mM DTT, 0.1 mM Na3VO4, 10 μg/ml aprotinin, 5 μg/ml pepstatin, 20 μg/ml leupeptin, 1 mM bezamidine followed by centrifugation at 800×g for 10 minutes at 4° C. (Ding et al., “Functional Role of Phosphodiesterase 3 in Cardiomyocyte Apoptosis: Implication in Heart Failure,” Circulation 111:2469-2476 (2005), which is hereby incorporated by reference in its entirety). Supernatant proteins were resolved by SDS-PAGE and transferred to nitrocellulose. Western blots were examined using antibodies against β-actin (Cell Signaling), BVR (Huang et al., “Detection of 10 Variants of Biliverdin Reductase in Rat Liver by Two-Dimensional Gel Electrophoresis,” J Biol Chem 264:7844-7849 (1989), which is hereby incorporated by reference in its entirety), HO-1, HO-2 (Panahian et al., “Site of Injury-Directed Induction of Heme Oxygenase-1 and -2 in Experimental Spinal Cord Injury Differential Functions in Neuronal Defense Mechanisms?” J Neurochem 76:539-554 (2001), which is hereby incorporated by reference in its entirety), and cleaved caspase-3 (Cell Signaling, Beverly Mass.). The secondary antibody was horseradish peroxidase-conjugated goat anti-rabbit IgG (1:2,000, Bio-Rad).
# Analysis of Apoptosis: The terminal deoxyribonucleotide transferase-mediated dUTP nick-end labeling (TUNEL) assay was used to detect in situ DNA fragmentation, using the In Situ Cell Death Detection Kit (Roche) as described previously (Ding et al., “Functional Role of Phosphodiesterase 3 in Cardiomyocyte Apoptosis: Implication in Heart Failure,” Circulation 111:2469-2476 (2005), which are hereby incorporated by reference in their entirety). In addition, the cells were stained for cardiomyocyte-specific sarcomeric α-actinin with the antibody EF-53 to distinguish cardiomyocytes from contaminating fibroblasts; and only EF-53 positive cells were counted. Three independent experiments were performed and an average of 1,000 EF-53 positive cells from random fields were analyzed.
# DNA Electrophoresis: Total cellular DNA was isolated from untreated and treated cells by lysis in 10 mM Tris-HCl, pH 7.8; 1 mM, EDTA, 10 mM NaCl, 1% (w/v) SDS and 1 mg/ml proteinase K at 60° C. for 2 hours. The lysate was extracted twice each with phenol-choloroform (1:1, v/v) and chloroform, followed by precipitation with ethanol. The precipitate was collected by centrifugation, washed once in 70% ethanol, and resuspended in TE containing 1 mg/ml RNase at 37° C. for 30 min. DNA was resolved by electrophoresis in 2.0% agarose gels containing ethidium bromide.
# It was noted that the level of cleaved caspase-3 protein, a marker for apoptosis, was increased by the inhibition of isoproterenol-induced expression of either BVR or HO-2 using siBVR or si-rHO-2, respectively (FIG. 6A). […] That apoptosis was occurring in cardiomyocytes, per se, was determined by triple staining of the cells with anti-α-actinin antibody to detect cardiomyocytes, TUNEL staining for cells undergoing apoptosis, and DAPI to detect nuclei (FIG. 6C). The merged images in FIG. 6C clearly indicate that the cardiomyocytes are undergoing apoptosis.
Molecule,HO-2 protein level ([1]; BVR gene expression inhibited by si-BVR),HO-2 protein level ([1]; absence of isoproterenol stimulation),"BVR activity (rate of conversion of biliverdin to bilirubin at pH 6.7, NADH cofactor) in perfused rat heart [2]","BVR activity (rate of conversion of biliverdin to bilirubin at pH 6.7, NADH cofactor) in perfused rat heart [3]",effect on isoproterenol-induced BVR protein expression [1],effect on isoproterenol-induced HO-2 protein expression [1],DNA fragmentation by electrophoresis of genomic DNA [4],number of cardiac apoptotic cells (TUNEL) [4],level of cleaved caspase-3 protein [4]
CC(C)C[C@@H](C=O)NC(=O)[C@H](CC(C)C)NC(=O)[C@H](CC(C)C)NC(=O)OCc1ccccc1 [MG132] (Cbz-Leu-Leu-Leu-aldehyde),increased the HO-2 protein levels,increased,–,–,–,–,–,–,–
B1,–,–,Treatment of the heart with peptide KYCCSRK^296 alone increased BVR activity,"peptide KKRILHC^281 blocked the activity of BVR, whether ISO was present or not",–,–,–,–,–
B2,–,–,–,–,efficiently blocked,effectively blocked; also recorded: also blocked,DNA fragmentation could be detected,increase,increased
B3,–,–,–,–,no effect,ablated,DNA fragmentation could be detected,increase,increased
